Reference: the supplement of paper PMC9732359
± gives the uncertainty stated by the source.

Assay: protein stability index of a GFP-peptide fusion (yeast GPS) (PSI 1-4); higher = more stable; sorted into four equal gates, so the index is relative within each strain
Summary of the method: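 Tiled 17-residue yeast protein peptides were fused downstream of GFP in a plasmid that also expresses Cherry, and the pooled library was carried in yeast. Mid-log cultures in leucine-free medium were sorted into four equal gates by GFP/Cherry fluorescence ratio, and plasmids from each gate were PCR-amplified and Illumina-sequenced, with reads assigned to strains by barcodes. The protein stability index for each peptide was each gate's read frequency times its gate number, summed.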

Row | Sequence | protein stability index (doa10∆) | protein stability index (pdr5∆) | protein stability index (san1∆) | protein stability index (ubr1∆)
1 | IHQYLFQEGVVVAKKDF [RPS10A] | 2.29 ± 0.068 | 2.08 ± 0.071 | 1.93 ± 0.089 | 2.04 ± 0.085
2 | LQWHAMIELICSSATVP [AAR2] | 1.55 ± 0.084 | 1.69 ± 0.073 | 1.59 ± 0.11 | 1.75 ± 0.057
3 | FLKKLRNEQVTIELKNG [SMD1] | 2.49 ± 0.051 | 2.24 ± 0.044 | 2.42 ± 0.056 | 2.67 ± 0.039
4 | DPESRTQSYNNQNTLKE [POP1] | 2.72 ± 0.069 | 2.69 ± 0.056 | 2.88 ± 0.079 | 2.79 ± 0.05
5 | EEAYDNPHDTLNRIKKY [PRP8] | 3.42 ± 0.13 | 3.2 ± 0.093 | 2.27 ± 0.17 | 3.4 ± 0.085
6 | KTVAVDSVFEQNEMIDA [RPL3] | 2.57 ± 0.095 | 2.75 ± 0.12 | 2.31 ± 0.11 | 2.51 ± 0.042
7 | EARLPSQVVWIRRLRVL [RPL19A] | 1.31 ± 0.072 | 1.63 ± 0.078 | 1.33 ± 0.11 | 1.44 ± 0.075
8 | LGDMENNLEKYPFRYKT [RTT102] | 3.44 ± 0.073 | 3.39 ± 0.055 | 3.46 ± 0.042 | 3.43 ± 0.081
9 | NLQIRQLFNWCLMRSLH [DSN1] | 1.26 ± 0.092 | 1.19 ± 0.061 | 1.04 ± 0.17 | 1.12 ± 0.13
10 | AKEKERMLEEAIDHLKA [YIL149C/MLP2] | 3.03 ± 0.05 | 3.12 ± 0.054 | 3.16 ± 0.056 | 3.01 ± 0.049
11 | FVFQTVFDTAITSWYEN [QCR9] | 1.66 ± 0.054 | 1.6 ± 0.039 | 1.74 ± 0.077 | 1.97 ± 0.044
12 | IRCHREDCDLVIMALML [POP5] | 2.45 ± 0.053 | 2.65 ± 0.064 | 2.01 ± 0.091 | 2.81 ± 0.047
13 | AFIFGLQDELKELQLEK [SMC3] | 3.23 ± 0.12 | 3.47 ± 0.11 | 3.11 ± 0.12 | 3.54 ± 0.19
14 | YVYRASKEVRGSKIRVM [RPL33A] | 2.75 ± 0.063 | 2.81 ± 0.086 | 2.5 ± 0.064 | 2.88 ± 0.049
15 | PGTTSTGNNNNIATQQN [GAL11] | 2.03 ± 0.052 | 2.69 ± 0.081 | 2.77 ± 0.085 | 2.73 ± 0.056
16 | RVKIANTSAATVHTATS [SSN2] | 2.86 ± 0.1 | 2.65 ± 0.051 | 2.39 ± 0.071 | 2.52 ± 0.094
17 | KKEELVEIAYHKCDELI [RPO31] | 3.13 ± 0.25 | 2.96 ± 0.1 | – | 3.14 ± 0.093
18 | NNIIAEGIEKMGVRTFS [FAS2] | 2.7 ± 0.22 | – | 2.23 ± 0.12 | 2.69 ± 0.12
19 | DFTLPEDFAPLLAEEEE [PRP8] | 3.42 ± 0.19 | 3.64 ± 0.22 | 3.23 ± 0.11 | 3.2 ± 0.084
20 | DHLIIEPEEEKSKREEE [ARP9] | 3.15 ± 0.27 | – | – | 3.2 ± 0.17
21 | DTSNWELSDSWRAHDSS [YGL100W/SEH1] | 3.29 ± 0.068 | 3.37 ± 0.058 | 3.4 ± 0.036 | 3.31 ± 0.037
22 | ANHDDQDDIDEMVENSS [SRP68] | 3.1 ± 0.1 | 3.2 ± 0.11 | 3.14 ± 0.095 | 3.13 ± 0.07
23 | KRSQKKHKKKHLKHENA [RPB4] | 3.03 ± 0.044 | 2.96 ± 0.052 | 3.09 ± 0.037 | 3.25 ± 0.043
24 | EVVEAVTVVDTPPVVVV [RPL3] | 1.36 ± 0.05 | 1.67 ± 0.05 | 1.48 ± 0.095 | 1.47 ± 0.036
25 | GATKIVREHYLRSDIPC [DIS3] | 2.67 ± 0.069 | 2.63 ± 0.067 | 2.1 ± 0.093 | 2.43 ± 0.054
26 | SGNTNGAGSAFGFSSSG [YOR098C/NUP1] | 3.25 ± 0.071 | 3.13 ± 0.064 | 3.07 ± 0.064 | 3.02 ± 0.087
27 | IVGKKIQEFLVVIEKRR [GRR1] | 3.23 ± 0.098 | 2.9 ± 0.098 | 3.29 ± 0.073 | 3.12 ± 0.055

Row | Sequence | protein stability index (doa10∆) | protein stability index (pdr5∆) | protein stability index (san1∆) | protein stability index (ubr1∆)
28 | TDDSFEDKVFASKGRTK [BRN1] | – | 2.74 ± 0.099 | 2.93 ± 0.13 | 2.29 ± 0.18
29 | IIMHKDVEIGRMPIMLR [RET1] | 3.29 ± 0.26 | 3.18 ± 0.16 | 2.98 ± 0.079 | 2.72 ± 0.16
30 | IKKPKTYKYPSLKGVDP [RPL29] | 3.63 ± 0.29 | 3.62 ± 0.2 | – | –
31 | FSKFERSKSSHKNERRV [SKI6] | 3.16 ± 0.082 | 3.16 ± 0.08 | 3 ± 0.064 | 3.25 ± 0.07
32 | FLGYKAGMTTIVRDLDR [RPL3] | 2.48 ± 0.12 | 3.17 ± 0.18 | 2.93 ± 0.078 | 3.14 ± 0.1
33 | LKVRKGHIAKLMATEYQ [RPB2] | 2.52 ± 0.14 | 2.33 ± 0.13 | 1.28 ± 0.19 | 1.86 ± 0.057
34 | DGDASKPAFSFGAKPDE [YJL041W/NSP1] | 3.32 ± 0.058 | 3.25 ± 0.058 | 3.15 ± 0.036 | 3.42 ± 0.043
35 | VQGAAPWDTSLEVGRRF [MCD1] | 3.48 ± 0.13 | 3.39 ± 0.13 | 3.28 ± 0.088 | 3.43 ± 0.16
36 | IVPGTYIQERNPSQRPQ [RPS10B] | 3.01 ± 0.055 | 3.07 ± 0.045 | 3.08 ± 0.037 | 3.26 ± 0.038
37 | SVIPEVDREAMLKPNII [YCG1] | 3.06 ± 0.12 | 3.31 ± 0.14 | 3.08 ± 0.14 | 3.05 ± 0.12
38 | SALIENNLFRIIAELSF [YJL039C/NUP192] | 2.22 ± 0.066 | 2.34 ± 0.056 | 2.04 ± 0.074 | 2.53 ± 0.052
39 | MQFAKSKTVKVLKTLIE [RPN6] | 1.24 ± 0.071 | 1.43 ± 0.077 | 2.51 ± 0.11 | 2.26 ± 0.093
40 | QIISGNRVPDGFQDRSL [RPO31] | 3.17 ± 0.13 | 3.13 ± 0.13 | 3.06 ± 0.08 | 3.38 ± 0.2
41 | KSVEKTMIKKTTLVTRR [SMC3] | 3.17 ± 0.23 | 3.19 ± 0.12 | 2.91 ± 0.066 | 3.4 ± 0.2
42 | RVHDQPLIWQLLQSSII [POP3] | 1.43 ± 0.062 | 1.78 ± 0.07 | 1.66 ± 0.11 | 1.7 ± 0.028
43 | KVGAEMMMQQQLKNVQL [MED2] | 2.54 ± 0.11 | 2.6 ± 0.085 | 2.96 ± 0.07 | 2.66 ± 0.085
44 | WKQDLTKEEAIKLASDA [PUP1] | 2.81 ± 0.19 | 3.16 ± 0.14 | 2.2 ± 0.14 | 3.01 ± 0.16
45 | ASDESLLRYGGAFTIAL [RPN2] | 3.39 ± 0.099 | 3.35 ± 0.13 | 3.25 ± 0.098 | 3.34 ± 0.083
46 | KNPHDIIEGINAGEIEI [RPL12A] | 2.66 ± 0.075 | 2.44 ± 0.075 | 2.22 ± 0.096 | 2.34 ± 0.06
47 | DMLKYKEDEPVVARRSN [ITC1] | 2.96 ± 0.1 | 2.42 ± 0.098 | 1.84 ± 0.084 | 1.76 ± 0.063
48 | VWFSHPRRFGKGSRQCR [RPS29B] | 3.02 ± 0.1 | 3.21 ± 0.065 | 3.44 ± 0.091 | 3.23 ± 0.071
49 | AVVVRGRYAGKKVVIVK [RPL27A] | 3.13 ± 0.11 | 3.38 ± 0.067 | 3.03 ± 0.074 | 2.81 ± 0.082
50 | RAQEEVKRIQSVPLVIG [RPT3] | 3.52 ± 0.13 | 3.16 ± 0.15 | 3.04 ± 0.11 | 3.21 ± 0.066
51 | KFHSELQYLDKHIKNLE [RPN12] | 3.14 ± 0.12 | 2.7 ± 0.17 | 2.84 ± 0.13 | 3.15 ± 0.072
52 | LSINEKDFVTMAIEIIN [YCG1] | 2.44 ± 0.082 | 2.38 ± 0.077 | 2.14 ± 0.093 | 2.15 ± 0.053
53 | AEYAQLLAKRLSERKAE [RPS6A] | 2.41 ± 0.051 | 2.11 ± 0.048 | 2.16 ± 0.082 | 2.28 ± 0.038
